Measured values: patent publication US20200109188A1 (AstraZeneca / MedImmune, published 2020)

How the values were obtained:
[1] = biological target: HA subtype H4 (A/duck/Czechoslovakia/56 (H4N6)) on HEK cells (influenza A virus, UniProt P19696 17-564); test: flow cytometry, HA-transfected HEK cells, 5 ug/ml antibody
[2] = biological target: HA subtype H14 (A/mallard/Astrakhan/263/82 (H14N5)) on HEK cells (influenza A virus, UniProt P26136 18-568); test: as above
[3] = biological target: HA subtype H10 (A/chicken/Germany/N49 (H10N7)) on HEK cells (influenza A virus, UniProt P12581 17-561); test: as above
Sequence of HA subtype H10 (A/chicken/Germany/N49 (H10N7)) on HEK cells (P12581 17-561): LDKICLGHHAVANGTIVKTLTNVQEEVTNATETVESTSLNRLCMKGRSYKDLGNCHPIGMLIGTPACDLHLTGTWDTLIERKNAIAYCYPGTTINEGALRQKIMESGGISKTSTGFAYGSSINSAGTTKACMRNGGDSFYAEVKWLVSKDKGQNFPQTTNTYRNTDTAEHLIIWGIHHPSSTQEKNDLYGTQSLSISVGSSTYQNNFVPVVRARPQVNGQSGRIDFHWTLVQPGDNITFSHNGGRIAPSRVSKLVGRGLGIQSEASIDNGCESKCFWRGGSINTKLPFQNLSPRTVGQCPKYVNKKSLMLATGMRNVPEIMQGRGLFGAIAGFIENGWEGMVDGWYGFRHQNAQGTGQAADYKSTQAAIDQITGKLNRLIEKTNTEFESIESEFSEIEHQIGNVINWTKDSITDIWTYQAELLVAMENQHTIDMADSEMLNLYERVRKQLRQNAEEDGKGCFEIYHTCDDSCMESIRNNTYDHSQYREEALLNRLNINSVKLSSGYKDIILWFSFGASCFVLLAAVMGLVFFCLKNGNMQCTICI

[4] = biological target: HA subtype H13 (A/gull/Maryland/704/77 (H13N6)) on HEK cells (influenza A virus, UniProt P13103 19-566); test: as above
Sequence of HA subtype H13 (A/gull/Maryland/704/77 (H13N6)) on HEK cells (P13103 19-566): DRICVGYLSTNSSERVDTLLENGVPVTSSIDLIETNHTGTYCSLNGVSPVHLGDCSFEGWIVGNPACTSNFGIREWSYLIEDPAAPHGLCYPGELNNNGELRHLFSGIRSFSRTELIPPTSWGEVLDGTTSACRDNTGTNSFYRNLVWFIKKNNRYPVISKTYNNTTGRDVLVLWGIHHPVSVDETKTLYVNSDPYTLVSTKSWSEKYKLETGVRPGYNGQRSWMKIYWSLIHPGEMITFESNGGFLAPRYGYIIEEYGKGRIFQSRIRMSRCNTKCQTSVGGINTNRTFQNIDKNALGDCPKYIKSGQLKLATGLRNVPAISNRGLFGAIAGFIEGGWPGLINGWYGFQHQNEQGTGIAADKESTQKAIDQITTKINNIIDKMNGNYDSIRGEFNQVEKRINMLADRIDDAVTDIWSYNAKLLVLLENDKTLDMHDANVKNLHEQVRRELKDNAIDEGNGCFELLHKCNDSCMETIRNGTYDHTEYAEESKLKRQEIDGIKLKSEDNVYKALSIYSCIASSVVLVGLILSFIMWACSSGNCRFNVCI

[5] = biological target: HA of ca A/Anhui/1/13 (H7N9) virus (influenza A virus); test: cell-based or functional assay
[6] = biological target: HA of A/Fort Monmouth/1/47 (H1N1) virus (influenza A virus); test: cell-based or functional assay
[7] = biological target: HA of ca A/Panama/2007/99 (H3N2) virus (influenza A virus); test: cell-based or functional assay
[8] = biological target: HA of ca A/New Caledonia/20/99 (H1N1) virus (influenza A virus); test: cell-based or functional assay
[9] = biological target: HA of ca A/Texas/36/91 (H1N1) virus (influenza A virus); test: cell-based or functional assay
[10] = biological target: HA of H3-LA87 (A/Los Angeles/7/09 (H3N2)) virus (influenza A virus); test: cell-based or functional assay
[11] = biological target: HA of ca A/Vietnam/1203/04 (H5N1) virus (influenza A virus); test: cell-based or functional assay

Sequence of HA subtype H14 (A/mallard/Astrakhan/263/82 (H14N5)) on HEK cells (P26136 18-568): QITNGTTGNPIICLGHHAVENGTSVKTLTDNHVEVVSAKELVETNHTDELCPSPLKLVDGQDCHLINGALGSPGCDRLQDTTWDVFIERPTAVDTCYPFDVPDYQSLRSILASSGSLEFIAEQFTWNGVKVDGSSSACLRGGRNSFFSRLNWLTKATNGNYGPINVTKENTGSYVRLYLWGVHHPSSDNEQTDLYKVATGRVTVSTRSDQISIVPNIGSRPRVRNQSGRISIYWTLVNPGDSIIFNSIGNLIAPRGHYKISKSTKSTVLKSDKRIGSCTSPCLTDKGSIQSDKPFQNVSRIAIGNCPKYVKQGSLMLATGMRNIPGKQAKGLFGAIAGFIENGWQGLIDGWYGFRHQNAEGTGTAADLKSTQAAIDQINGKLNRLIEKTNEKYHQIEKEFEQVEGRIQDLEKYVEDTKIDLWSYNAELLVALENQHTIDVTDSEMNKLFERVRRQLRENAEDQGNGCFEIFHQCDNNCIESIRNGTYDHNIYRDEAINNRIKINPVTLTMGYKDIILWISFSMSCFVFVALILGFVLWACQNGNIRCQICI
Sequence of HA subtype H4 (A/duck/Czechoslovakia/56 (H4N6)) on HEK cells (P19696 17-564): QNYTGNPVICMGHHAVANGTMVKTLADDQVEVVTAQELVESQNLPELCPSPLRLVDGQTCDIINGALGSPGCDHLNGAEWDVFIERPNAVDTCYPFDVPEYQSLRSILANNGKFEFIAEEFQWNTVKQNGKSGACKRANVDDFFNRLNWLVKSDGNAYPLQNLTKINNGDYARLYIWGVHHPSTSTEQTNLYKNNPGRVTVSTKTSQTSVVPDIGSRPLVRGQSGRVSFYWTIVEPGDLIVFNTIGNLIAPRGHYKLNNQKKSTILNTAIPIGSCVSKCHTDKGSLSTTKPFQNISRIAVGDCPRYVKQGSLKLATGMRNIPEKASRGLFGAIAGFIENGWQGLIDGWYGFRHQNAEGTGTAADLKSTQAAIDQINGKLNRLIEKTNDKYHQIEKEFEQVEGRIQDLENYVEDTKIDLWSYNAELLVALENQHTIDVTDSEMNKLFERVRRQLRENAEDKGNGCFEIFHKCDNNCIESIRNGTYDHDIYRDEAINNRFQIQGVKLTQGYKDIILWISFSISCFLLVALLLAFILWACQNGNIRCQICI

B1: Antibody 3 (antibody, V domains shown)
VH: QVQLQESGPGLVKPSQTLSLTCAISGDSVSSNNAVWNWIRQSPSRGLEWLGRTYYRSKWYNDYAESVKSRITVNPDTSKNQFSLHLKSVTPEDTAVFYCVRSGHITVFGVNVDAFDMWGQGTMVTVSS
VL: DIQMTQSPSSLSASVGDRVTITCRTSQSLSSYLHWYQQKPGKAPKLLIYAASSLQSGVPSRFSGSGSGTDFTLTISSLQPEDFATYYCQQSRTFGQGTKVEIK
[1]
  binding result: binds
[2]
  binding result: binds
[3]
  binding result: binds
[4]
  binding result: binds
[5]
  Neutralization IC50, H7-ANU13: 4.26 µg/mL
[6]
  Neutralization IC50, H1-FM47: 1.04 µg/mL
[7]
  Neutralization IC50, H3-Pa99: 9 µg/mL
[8]
  Neutralization IC50, H1-Ncal99: 1.16 µg/mL
[9]
  Neutralization IC50, H1-TX91: 0.92 µg/mL
[10]
  Neutralization IC50, H3-LA87: 2.04 µg/mL
[11]
  Neutralization IC50, H5-VM04: 1.19 µg/mL
